Biological target: T1, AdpA (His-tagged) (Streptomyces coelicolor M145) (UniProt Q9L062)
T1 sequence: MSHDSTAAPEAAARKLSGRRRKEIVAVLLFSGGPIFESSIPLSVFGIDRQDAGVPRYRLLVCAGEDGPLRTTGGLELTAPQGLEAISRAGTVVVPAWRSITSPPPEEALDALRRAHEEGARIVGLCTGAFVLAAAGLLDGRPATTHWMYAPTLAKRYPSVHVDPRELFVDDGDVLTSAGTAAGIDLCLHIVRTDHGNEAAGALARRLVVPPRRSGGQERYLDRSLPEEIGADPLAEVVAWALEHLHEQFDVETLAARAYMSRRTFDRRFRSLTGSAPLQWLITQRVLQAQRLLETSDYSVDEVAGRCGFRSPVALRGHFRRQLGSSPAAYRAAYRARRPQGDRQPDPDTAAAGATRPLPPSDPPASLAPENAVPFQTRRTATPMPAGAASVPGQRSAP
Assay: EMSA
Conditions: EMSA: 20 mM Tris-HCl pH 8.0, 2 mM EDTA, 20 mM KCl, 0.5 mM DTT, 4% Ficoll-400, 2 µg poly(dI-dC), room temperature, 25 min; 20 nM probe

Question: For “GCGGCAGATCAGGACCCTCCAGGACTTCGGGTTCGACCTGGAGGAGACCCGCCCCTTCGTGGAGTGCCTGCGCGCCGGGCACCCGGAGGGCGACTCCTGTCCGGCGTCCCTCGTGGTCTACCGGCGCAAGCTGGCCGAGCTGGACACGCTGATCGAGCAGCTCACGTCGGTGCGCGCGCAGGTCGCCGCACAGCTGACGCGGGCCGAGGCGGCGGCTCCGGGGGGTCCGGAGCCCAAGTGCGAACTGGGAGGACACGGATGAAGACCAGCGGGGTGCCCGAGGTGACGGACGCGGACTT (double strand) [trxA2 (sco5438) promoter probe]”, which binding is on record?
Answer: The binding was “binds”.

Question: For “TCATGGGCGCGCGTCCTGCGCACGCCGCCGGTTCGGTACTCCGAAGGTGCAGCGTCCGCGGAGCCGCGGAGATTCCCGCCCACCGTCGCATTTCGGCCACGCGAGGGCCCGGCGAGTGATGAGGATCTCGCCGCACACGGGCACCAAGGCTGGTA (double strand) [trxA5 (sco1084) promoter probe]”, which binding is on record?
Answer: Its binding is “binds”.
